B1: Polypeptide No. 4 (scFv, V domains shown)
VH: QVQLVQSGAEVKKPGASVKVSCKASGGTFSSYAISWVRQAPGQGLEWMGWINPNSGNTGYAQKFQGRVTMTRDTSTSTVYMELSSLRSEDTAVYYCAREHGDMDVWGQGTTVTVSS
VL: EIVMTQSPATLSVSPGERATLSCRASQNINSDLAWYQQKPGQAPRLLIYGASTRATGIPARFSGSGSGTEFTLTISSLQSEDFAVYYCQQYDSLPFTFGPGTKVDIKR
notes: scFv
B2: Polypeptide No. 12 (scFv, V domains shown)
VH: EVQLLESGGGLVQPGGSLRLSCAASGFTFSSHWMSWVRQAPGKGLEWVSAISGSGGSTYYADSVKGRFTISRDNSKNTLYLQMNSLRAEDTAVYYCARDDNSGSQADWGQGTLVTVSS
VL: DIQMTQSPSSLSASVGDRVTITCQASQDIDNYLNWYQQKPGKAPKLLIYDASNLETGVPSRFSGSGSGTDFTLTISSLQPEDFATYYCQQSYSTPLTFGGGTKLEIKR
notes: scFv
B3: Polypeptide No. 9 (scFv, V domains shown)
VH: QVQLVQSGAEVKKPGSSVKVSCKASGGTFSSDAINWVRQAPGQGLEWMGGFDPEDGETIYAQKFQGRVTITADESTSTAYMELSSLRSEDTAVYYCARGPSGYDFEFDYWGQGTLVTVSS
VL: DIQMTQSPSSLSASVGDRVTITCRSSRNISHWLAWYQQKPGKAPKLLIYKASSLESGVPSRFSGSGSGTDFTLTISSLQPEDFATYYCQQAISFPLTFGGGTKVEIKR
notes: scFv
B4: Polypeptide No. 8 (scFv, V domains shown)
VH: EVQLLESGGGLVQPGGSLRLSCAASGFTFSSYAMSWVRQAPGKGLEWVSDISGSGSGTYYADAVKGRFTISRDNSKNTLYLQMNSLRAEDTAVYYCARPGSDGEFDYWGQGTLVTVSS
VL: DIQMTQSPSSLSASVGDRVTITCRASQSVSSFLNWYQQKPGKAPKLLIYAASSLQSGVPSRFSGSGSGTDFTLTISSLQPEDFATYYCQQSYTTPLTFGQGTKVEIKR
notes: scFv
B5: Polypeptide No. 48 (scFv, V domains shown)
VH: EVQLLESGGGLVQPGGSLRLSCAASGFNFDDYAMHWVRQAPGKGLEWVSVIYSGGSTYYADSVKGRFTISRDNSKNTLYLQMNSLRAEDTAVYYCTRHDFDYWGQGTLVTVSS
VL: DIQMTQSPSSLSASVGDRVTITCRASQSISTYVNWYQQKPGKAPKLLIYAASSLQSGVPSRFSGSGSGTDFTLTISSLQPEDFATYYCQQDYSYPYTFGQGTKVEIKR
notes: scFv
B6: Polypeptide No. 49 (scFv, V domains shown)
VH: EVQLVESGGGLVKPGGSLRLSCAASGFTFSDYALHWVRQAPGKGLEWVSLISGDGGSTYYADSVKGRFTISRDDSKNTLYLQMNSLKTEDTAVYYCARDLGGERSYWGQGTLVTVSS
VL: DIQMTQSPSSLSASVGDRVTITCRASQSISTWLAWYQQKPGKAPKLLIYAASTLQSGVPSRFSGSGSGTDFTLTISSLQPEDFATYYCLQDYSYPPTFGQGTKVEIKR
notes: scFv
B7: Polypeptide No. 11 (scFv, V domains shown)
VH: QVQLVQSGAEVKKPGASVKVSCKASGDTFTNHYMHWVRQAPGQGLEWMGWINPNSGGTNYAQKFQGRVTMTRDTSTSTVYMELSSLRSEDTAVYYCARDLVPAAVGGYFDYWGQGTLVTVSS
VL: DIQMTQSPSSLSASVGDRVTITCRASQSLGSWLAWYQQKPGKAPKLLIYAASSLQSGVPSRFSGSGSGTDFTLTISSLQPEDFATYYCQQANSFPLTFGQGTKVEIKR
notes: scFv
B8: Polypeptide No. 24 (scFv, V domains shown)
VH: QVQLVQSGAEVKKPGSSVKVSCKASGYSFTSYGISWVRQAPGQGLEWLGWISAYNGNTNYGQSLQGRVTITADESTSTAYMELSSLRSEDTAVYYCARARGAGTFFDYWGQGTLVTVSS
VL: DIVMTQSPLSLPVTPGEPASISCRSSQSLLHSNGYNYLDWYLQKPGQSPQLLIYDATNLPTGVPDRFSGSGSGTDFTLKISRVEAEDVGVYYCMQALQTPFTFGQGTKLEIKR
notes: scFv
B9: Polypeptide No. 47 (scFv, V domains shown)
VH: EVQLLESGGGLVQPGGSLRLSCAASGFTFDEYAMHWVRQAPGKGLEWVSAIGAGGSTYYADSVKGRFTISRDNSKNTLYLQMNSLRAEDTAVYYCASSLGPELRGVDYYYYGMDVWGQGTTVTVSS
VL: DIVMTQSPLSLPVTPGEPASISCRSSQSLLHSNGYNYLDWYLQKPGQSPQLLIYAASSLQSGVPDRFSGSGSGTDFTLKISRVEAEDVGVYYCMQGIQWPWTFGQGTKVEIKR
notes: scFv
B10: Polypeptide No. 37 (scFv, V domains shown)
VH: QVQLVQSGAEVKKPGASVKVSCKASGYTFTGYYLHWVRQAPGQGLEWMGVISPSGGGTSYAQKFQGRVTMTRDTSTSTVYMELSSLRSEDTAVYYCARAGFGEGVFRHWGQGTLVTVSS
VL: not shown
notes: scFv
B11: Polypeptide No. 14 (scFv, V domains shown)
VH: QVQLVQSGAEVKKPGASVKVSCKASGYTFTGYYMHWVRQAPGQGLEWMGIINPSGGSTSYAQKFQGRVTMTRDTSTSTVYMELSSLRSEDTAVYYCARAAPYYYDSSGYYSGGYYFDYWGQGTLVTVSS
VL: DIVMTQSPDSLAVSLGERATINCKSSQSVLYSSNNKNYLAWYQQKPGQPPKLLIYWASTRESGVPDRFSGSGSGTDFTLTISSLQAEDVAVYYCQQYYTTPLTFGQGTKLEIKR
notes: scFv
B12: Polypeptide No. 15 (scFv, V domains shown)
VH: EVQLLESGGGLVQPGGSLRLSCAASGFTFSIYEIHWVRQAPGKGLEWVSAISGSGGSTYYADSVKGRFTISRDNSKNTLYLQMNSLRAEDTAVYYCARSYCGGDCWDYYYYYGMDVWGQGTTVTVSS
VL: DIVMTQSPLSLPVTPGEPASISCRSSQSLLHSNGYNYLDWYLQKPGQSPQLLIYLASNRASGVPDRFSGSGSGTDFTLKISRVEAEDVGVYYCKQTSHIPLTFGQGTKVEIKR
notes: scFv
B13: Polypeptide No. 10 (scFv, V domains shown)
VH: QVQLVQSGAEVKKPGASVKVSCKASGDTFTTYAISWVRQAPGQGLEWMGWINPNSGVATYANKFQGRVTMTRDTSTSTVYMELSSLRSEDTAVYYCAREGIVGATDAFDIWGQGTMVTVSS
VL: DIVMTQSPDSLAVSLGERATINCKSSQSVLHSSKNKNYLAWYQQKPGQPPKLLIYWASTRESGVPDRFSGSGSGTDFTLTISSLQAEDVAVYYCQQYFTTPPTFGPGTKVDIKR
notes: scFv
B14: Polypeptide No. 5 (scFv, V domains shown)
VH: QVQLVQSGAEVKKPGASVKVSCKASGNTFTSYGISWVRQAPGQGLEWMGWINPNSGGTKYAQKFQGRVTMTRDTSTSTVYMELSSLRSEDTAVYYCARESWFGELYYGMDVWGKGTTVTVSS
VL: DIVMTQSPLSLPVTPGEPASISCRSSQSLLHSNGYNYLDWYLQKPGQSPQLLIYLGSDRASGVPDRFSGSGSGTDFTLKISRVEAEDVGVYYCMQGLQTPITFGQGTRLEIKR
notes: scFv
B15: Polypeptide No. 6 (scFv, V domains shown)
VH: QVQLVQSGAEVKKPGASVKVSCKASGYTFTAYYTHWVRQAPGQGLEWMGWMNPNSGHTSYAQKFQGRVTMTRDTSTSTVYMELSSLRSEDTAVYYCAREAYDSFDYWGQGTLVTVSS
VL: DIQMTQSPSSLSASVGDRVTITCRASQSISSYLNWYQQKPGKAPKLLIYEASTLETGVPSRFSGSGSGTDFTLTISSLQPEDFATYYCQQANSFPFTFGPGTKVDIKR
notes: scFv
B16: Polypeptide No. 7 (scFv, V domains shown)
VH: QVQLVQSGAEVKKPGASVKVSCKASGYTFTDYYMHWVRQAPGQGLEWMGWINPNSGGTNYAQKFQGRVTMTRDTSTSTVYMELSSLRSEDTAVYYCARDSRIAVAASSFDYWGQGTLVTVSS
VL: DIQMTQSPSSLSASVGDRVTITCRASRGINNWLTWYQQKPGKAPKLLIYGASSLQSGVPSRFSGSGSGTDFTLTISSLQPEDFATYYCQQSYRIPYTFGQGTKLEIKR
notes: scFv
B17: Polypeptide No. 13 (scFv, V domains shown)
VH: QVQLVQSGAEVKKPGASVKVSCKASGYSFTGYYMHWVRQAPGQGLEWMGWINPNSGGTYFAQNFQGRVTMTRDTSTSTVYMELSSLRSEDTAVYYCVKDRGDRVVTSYLDYWGQGTLVTVSS
VL: DIQMTQSPSSLSASVGDRVTITCRASQGIRNWLAWYQQKPGKAPKLLIYAASSLQSGVPSRFSGSGSGTDFTLTISSLQPEDFATYYCQQSYRTPYTFGQGTKLEIKR
notes: scFv
B18: Polypeptide No. 20 (scFv, V domains shown)
VH: QVQLVQSGAEVKKPGASVKVSCKASGYMFTGYYIHWVRQAPGQGLEWMGWINPNSGGTNYAQKFQGRVTMTRDTSTSTVYMELSSLRSEDTAVYYCAKDRFGSGNYGYMDVWGKGTTVTVSS
VL: DIQMTQSPSSLSASVGDRVTITCRASQSIDRWLAWYQQKPGKAPKLLIYGASSLQSGVPSRFSGSGSGTDFTLTISSLQPEDFATYYCQQSYSTPWTFGQGTRLEIKR
notes: scFv

Legend:
[1] = molecular target: T1, huCD33-R69 stably expressed on Jurkat cells (human, UniProt P20138 18-364); assay: FACS on cells;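 also: fixed Jurkat cells bearing either CD33 variant, barcoded by dye, exposed to myc-tagged scFv periplasmic extracts, detected with anti-myc PE antibody and read by flow cytometry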
T1 construct: whole, on cells; >200,000 receptors per cell; also called CD33 WT; CD33^ARG69
T1 sequence (P20138 18-364): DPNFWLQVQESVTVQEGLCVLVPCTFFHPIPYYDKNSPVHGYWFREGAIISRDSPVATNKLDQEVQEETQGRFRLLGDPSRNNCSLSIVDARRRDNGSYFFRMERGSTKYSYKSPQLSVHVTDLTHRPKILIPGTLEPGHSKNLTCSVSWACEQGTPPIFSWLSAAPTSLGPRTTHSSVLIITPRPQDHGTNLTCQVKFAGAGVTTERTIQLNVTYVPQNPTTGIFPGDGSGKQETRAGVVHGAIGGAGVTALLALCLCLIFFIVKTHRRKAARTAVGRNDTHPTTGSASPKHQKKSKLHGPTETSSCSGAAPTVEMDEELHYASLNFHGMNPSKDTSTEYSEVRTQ

[2] = molecular target: T2, huCD33-G69 stably expressed on Jurkat cells (human, UniProt P20138 18-364); assay: FACS on cells;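 also: fixed Jurkat cells bearing either CD33 variant, barcoded by dye, exposed to myc-tagged scFv periplasmic extracts, detected with anti-myc PE antibody and read by flow cytometry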
T2 construct: whole, on cells; >200,000 receptors per cell; also called CD33 Mutant; CD33 R69G
T2 sequence (P20138 18-364 R69G): as the sequence (P20138 18-364) above, with R52G counted along it

[3] = molecular target: T3, huCD33-G69-Fc recombinant protein (human, UniProt P20138 18-259); assay: BLI;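 also: scFvs from periplasmic extracts captured on biosensors via anti-V5 antibody, exposed to recombinant huCD33 variants for 2 min, 5 min dissociation, scored as binding, no binding or ambiguous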
T3 construct: extracellular domain; also called CD33 R69G
T3 sequence (P20138 18-259 R69G): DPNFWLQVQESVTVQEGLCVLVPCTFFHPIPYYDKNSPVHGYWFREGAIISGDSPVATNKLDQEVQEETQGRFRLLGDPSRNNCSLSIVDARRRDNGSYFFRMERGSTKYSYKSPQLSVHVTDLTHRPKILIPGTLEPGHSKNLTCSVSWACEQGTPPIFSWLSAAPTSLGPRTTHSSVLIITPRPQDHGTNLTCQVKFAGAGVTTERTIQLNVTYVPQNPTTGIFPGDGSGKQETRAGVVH
Description: Discovered scFvs were analyzed for binding to huCD33-R69-His or huCD33-G69-Fc recombinant proteins (for anti-CD33 scFvs; for CLL-1 scFvs, huCLL1-K244-Avi-Tev-His or huCLL1-Q244-Avi-Tev-His were used; for FLT3, huFLT3-T227-His or huFLT3-M227-Fc were used) using BLI on a ForteBio Octet HTX instrument. Streptavidin-coated biosensors were loaded with biotinylated anti-V5 tag monoclonal antibody for 5 min and were then quenched and blocked with 20 μM amine-PEG2-Biotin for 5 min. scFvs were captured on biosensors from scFv clone periplasmic extracts. huCD33 (or huCLL-1, or huFLT3) proteins were then associated with the captured scFvs for 2 minutes, followed by dissociation with buffer (1×HBST [10 mM HEPES pH 7.4, 150 mM NaCl, 0.05% Tween-20], 1 g/L BSA) for 5 minutes. […] Data was fitted with 1:1 Langmuir equation and off-rate values were reported.

[4] = molecular target: T4, huCLL1-Q244-Avi-Tev-His (human, UniProt Q5QGZ9 65-265); assay: BLI
T4 construct: extracellular domain; also called CLL-1 K244Q
T4 sequence (looked up): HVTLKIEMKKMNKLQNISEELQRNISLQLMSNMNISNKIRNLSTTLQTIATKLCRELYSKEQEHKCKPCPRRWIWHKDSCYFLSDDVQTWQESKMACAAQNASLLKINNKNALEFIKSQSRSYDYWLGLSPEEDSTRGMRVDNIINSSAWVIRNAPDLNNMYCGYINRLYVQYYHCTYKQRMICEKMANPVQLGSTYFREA

[5] = molecular target: T5, huCLL1-K244-Avi-Tev-His (human, UniProt Q5QGZ9 65-265); assay: BLI
T5 construct: extracellular domain
T5 sequence (looked up): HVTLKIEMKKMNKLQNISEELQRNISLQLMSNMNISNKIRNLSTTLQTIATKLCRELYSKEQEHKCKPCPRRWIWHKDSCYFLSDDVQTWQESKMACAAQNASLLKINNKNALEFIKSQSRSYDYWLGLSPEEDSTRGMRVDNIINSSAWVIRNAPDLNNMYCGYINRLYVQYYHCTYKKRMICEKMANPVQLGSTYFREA

Row | Binder | geometric mean MFI fold change over Jurkat parental [1] [fold] | geometric mean MFI fold change over Jurkat parental [2] [fold] | binding result [3] | binding result [4] | binding result [5]
1 | B1 | > 30 | < 2 | no binding |  | 
2 | B2 | 2 to 10 | < 2 | no binding |  | 
3 | B3 | 2 to 10 | < 2 | no binding |  | 
4 | B4 | 10 to 30 | < 2 | no binding |  | 
5 | B5 |  |  |  | no binding | binds
6 | B6 |  |  |  | no binding | binds
7 | B7 | 2 to 10 | < 2 | no binding |  | 
8 | B8 | > 30 | < 2 |  |  | 
9 | B9 |  |  |  | no binding | binds
10 | B10 | < 2 | 2 to 10 |  |  | 
11 | B11 | > 30 | < 2 | no binding |  | 
12 | B12 | 2 to 10 | < 2 | no binding |  | 
13 | B13 | 2 to 10 | < 2 | no binding |  | 
14 | B14 | > 30 | < 2 | no binding |  | 
15 | B15 | > 30 | < 2 | no binding |  | 
16 | B16 | 10 to 30 | < 2 | no binding |  | 
17 | B17 | 10 to 30 | < 2 | no binding |  | 
18 | B18 | 10 to 30 | < 2 |  |  | 

Reference: patent US20240101668A1 (WUGEN, published 2024)
